Literature values, collected in PMC10092198.

Target: C3b (mC3b) C3b (Mus musculus) (UniProt P01027)
UniProt P01027, sequence (P01027 566-669): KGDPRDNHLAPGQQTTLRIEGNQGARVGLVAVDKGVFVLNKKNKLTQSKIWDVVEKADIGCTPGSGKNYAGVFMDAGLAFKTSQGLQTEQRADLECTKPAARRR

- Kd: 1000 nM
Substance: Factor H (mFH) (from UniProt P06909)
